Data: patent publication US20160333060A1 (UNITED STATES OF AMERICA AS REPRESENTED BY THE SECRETARY …, published 2016)

Biological target: T1, recombinant HIV-1HXB2 gp41 (Vybion Inc.) (HIV-1 HXB2, UniProt P04578 541-682)
T1 construct: domain: gp41; Bought reagent; also called rgp41
Assay: ELISA, plate-bound recombinant HIV-1HXB2 gp41, serial dilutions of rCNID-1-Trx, detection with rabbit anti-CNID-1

B1: recombinant CNID-1 in fusion with thioredoxin (thioredoxin-hexahistidine-CNID-1) (other)
chain: GRATLGQLKTSTIPPVTFDVPFDGANIPQDVRFTIATVNGGKGALYNAELGESAGHTIVLESDGDHPIPGTFDPKSGRGLDYLPRGLVLFSSHNYVGNMKMYTEPDSDITADFPPGTPFGVSSAITGEGSAFQLNTGIDHTGEFEIIPPNTKRNLAGVFDNEIRSVSPTGGK
modifications: Europium label in the reference-protein ELISA only; otherwise none stated
notes: The N-terminal residue of native CNID-1 is sarcosine; also called rCNID-1-Trx; CNID-1-Trx; not shown: N-terminal thioredoxin (Trx) encoded by the Novagen pET32b(+) Trx fusion vector
B1: no binding.
